Laboratory results reported in patent US20100047253A1 (Amgen, published 2010).

T1: Human IL-13-Mouse IL-13 Helix C (human IL-13 with mouse Helix C, UniProt P35225 35-146, limits assumed)
T1 construct: Expressed and secreted chimeric protein; also called Mo HelixC
T1 chain: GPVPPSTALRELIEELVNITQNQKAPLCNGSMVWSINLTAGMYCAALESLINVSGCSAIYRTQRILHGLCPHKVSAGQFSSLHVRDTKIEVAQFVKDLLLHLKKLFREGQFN

T2: Human IL-13-Mouse IL-13 Helix B (human IL-13 with mouse Helix B, UniProt P35225 35-146, limits assumed)
T2 construct: Expressed and secreted chimeric protein; also called Mo HelixB
T2 chain: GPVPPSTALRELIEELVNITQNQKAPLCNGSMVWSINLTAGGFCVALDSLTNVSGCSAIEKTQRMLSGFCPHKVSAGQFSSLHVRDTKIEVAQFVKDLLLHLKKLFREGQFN

T3: mouse IL-13 (mouse, UniProt P20109 22-131, limits assumed)
T3 construct: also called murine IL-13
T3 sequence (looked up): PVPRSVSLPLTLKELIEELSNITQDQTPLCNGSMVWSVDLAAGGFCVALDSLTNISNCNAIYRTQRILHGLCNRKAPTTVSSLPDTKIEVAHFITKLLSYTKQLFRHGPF


Key:
[1] = molecular target: T1, Human IL-13-Mouse IL-13 Helix C; test: ELISA on secreted IL-13 chimeric proteins
[2] = molecular target: T2, Human IL-13-Mouse IL-13 Helix B; test: ELISA on secreted IL-13 chimeric proteins; '*' denotes that the binding was weak in the sandwich ELISA
[3] = molecular target: T4, Recombinant Human IL-13 (R & D 213-IL-005) (human, UniProt P35225 35-146); test: SPR (Biacore 2000), mAb captured on goat anti-human surface, IL-13 (R&D) injected, 1:1 model
T4 construct: also called IL-13 antigen (R&D Systems)

native human IL-13 = molecular target: T5, native human IL-13 (human, UniProt P35225 35-146, limits assumed); test: KinExA, equilibrium in solution
T5 construct: also called hIL-13

[4] = molecular target: human IL-13 (source not stated for the assay) (human, UniProt P35225 35-146, limits assumed); test: cell-based or functional assay
mouse IL-13 = molecular target: T3, mouse IL-13; test: epitope mapping with mouse IL-13 chimeric molecules (ELISA)
[5] = molecular target: T2, Human IL-13-Mouse IL-13 Helix B; test: ELISA on secreted IL-13 chimeric proteins

T4 sequence (P35225 35-146 limits assumed): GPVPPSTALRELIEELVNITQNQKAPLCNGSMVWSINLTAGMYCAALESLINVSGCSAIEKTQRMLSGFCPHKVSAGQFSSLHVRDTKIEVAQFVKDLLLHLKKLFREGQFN
Sequence of human IL-13 (source not stated for the assay) (P35225 35-146 limits assumed): as above
T5 sequence (P35225 35-146 limits assumed): as above

| Binder | binding result [1] | binding result [2] | Kd [3] | koff [3] | kon [3] | Kd (native human IL-13) | IC50, IL-13 induced eotaxin release, Average [4] | IC50, IL-13 induced eotaxin release, n = 1 [4] | IC50, IL-13 induced eotaxin release, n = 2 [4] | IC50, IL-13 induced eotaxin release, n = 3 [4] | binding result (mouse IL-13) | binding result [5] |
| --- | --- | --- | --- | --- | --- | --- | --- | --- | --- | --- | --- | --- |
| mAb 602 (antibody, V domains shown) VH: EVQLVESGGGLVKPGGSLRLSCAASGFTFSNAWMSWVRQAPGKGLEWVGRIRSKIDGGTINYAAPVKGRFTISRDDSKNTLYLQMNSLKTEDTAVYYCATDQVGAYYGDYYGMDVWGQGTTVTVSS VL: SYELTQPPSVSVSPGQTARITCSGDALPEKYAYWYQQKSGQAPVLVIYEDTKRPSGIPERFSGSSSGTMATLTISGAQVEDEADYYCYSTDSSGNHGVFGGGTKLTVLG | binds |  | 0.172 nM | 0.00051 s⁻¹ | 3e+06 M⁻¹ s⁻¹ |  | 0.066 nM | 0.08 nM | 0.053 nM |  | no binding | binds |
| mAb 643 (antibody, V domains shown) VH: EVQLVESGGGLVKPGGSLRLSCAASGFTFSNAWMSWVRQAPGKGLEWVGRIRSEIDGGTTNYAAPVKGRFTISRDDSKNTLYLQMNSLRTEDTAVYYCATDQVGAYYGDYYGMDVWGQGTTVTVSS VL: SYELTQPPSVSVSPGQTARITCSGDALPEKYAYWYQQKSGQAPVLVIYEDSKRPSGIPERFSGSSSGTMATLTISGAQVEDEADYYCHSTDSSGNHGVFGGGTKLTVLG | binds |  | 0.066 nM | 0.00029 s⁻¹ | 4.4e+06 M⁻¹ s⁻¹ | 0.013 nM | 0.035 nM | 0.044 nM | 0.028 nM | 0.033 nM | no binding | binds |
| mAb 11.18 (antibody, V domains shown) VH: QVQLVESGGGVVQPGRSLRLSCVASGFTFSSYDMHWVRQAPGKGLEWVAVIWYDGSNKYYADSVQGRFTISRDNSKNTLYLQMNSLRAEDTAVYYCTSEDSSGWYDGWFDPWGQGTLVTVSS VL: DIQMTQSPSSLSASVGDRVTITCRASQGISNYLAWYQQKPGKVPKVLIYAASTLQSGVPSRFSGSGSGTDFTLTISSLQPEDVATYYCQKYNSAPFTFGPGTKVDIK |  |  |  |  |  |  | 0.245 nM | 0.213 nM | 0.304 nM | 0.217 nM |  |  |
| mAb 157 (antibody, V domains shown) VH: EVQLVESGGGLVKPGGSLRLSCAASGFTFSSYSMNWVRQAPGKGLEWVSYISTSYNYIYYADSVKGRFTISRDNAKNSLYLQMNSLRAEDTAVYYCARDQVGATLDAFDIWGQGTMVTVSS VL: DIQMTQSPSSLSASVGDRVTITCRASQGIGDDLGWYQQKPGKAPKRLIYAASSLQSGVPSRFSGSGSGTEFTLTISSLQPEDFATYYCLQHNSYPFTFGPGTRVDIK |  |  |  |  |  |  | 0.258 nM | 0.26 nM | 0.207 nM | 0.306 nM |  |  |
| mAb 183 (antibody, V domains shown) VH: EVQLVESGGGLVKPGGSLRLSCAASGFTFSSYSMNWVRQAPGKGLEWVSYISSSYNYIYYGDSVKGRFTISRDNAKNSLYLQMNSLRAEDTAVYYCARDQVGATLDAFDIWGQGTMVTVSS VL: DIQMTQSPSSLSASVGDRVTITCRASQGIGDDLGWYQQKPGKAPKRLIYAASSLQSGVPSRFSGSGSGTEFTLTISSLQPEDFATYYCLQHNSYPFTFGPGTKVDIK |  |  |  |  |  |  | 1.44 nM | 1.04 nM | 1.84 nM |  |  |  |
| mAb 176 (antibody, V domains shown) VH: EVQLVESGGGLVKPGGSLRLSCAASGFTFSSYSMNWVRQAPGKGLEWVSYISTSNSYIYYADSVKGRFTISRDNAKNSLYLQMNSLRAEDTAVYYCARDQVGATLDAFDIWGQGTMVTVSS VL: DIQMTQSPSSLSASVGDRVTFTCRASQDITDDLGWYQQKPGKAPKRLIYAASSLQSGVPPRFSGSGSGTEFTLTISSLQPEDFATYYCLQHNSYPFTFGPGTKVDIR |  |  |  |  |  |  | 0.233 nM | 0.233 nM |  |  |  |  |

Continued, values first:

| binding result [1] | binding result [2] | Kd [3] | koff [3] | kon [3] | Kd (native human IL-13) | IC50, IL-13 induced eotaxin release, Average [4] | IC50, IL-13 induced eotaxin release, n = 1 [4] | IC50, IL-13 induced eotaxin release, n = 2 [4] | IC50, IL-13 induced eotaxin release, n = 3 [4] | binding result (mouse IL-13) | binding result [5] | Binder |
| --- | --- | --- | --- | --- | --- | --- | --- | --- | --- | --- | --- | --- |
| no binding | binds | 0.012 nM | 3.4e-05 s⁻¹ | 2.9e+06 M⁻¹ s⁻¹ | 0.0036 nM | 0.021 nM | 0.021 nM | 0.021 nM | 0.019 nM | no binding |  | mAb 713 (antibody, V domains shown) VH: EVQLLESGGGLVQPGGSLRLSCAASGFTFSSYAMSWVRQAPGKGLEWVSAFSGSGGSTYYADSVKGRFTISRDNSKNTLYLQMNSLRAEDTAVYYCVQDGLGPYFYNYGMDVWGQGTTVTVSS VL: SYELTQPPSVSVSPGQTASITCSGDKLGDKYTCWFQQKPGQSPVLVIYHDSKRPSGIPERFSGSNSGDTATLTISGTQAMDEADYYCQAWDSSTYVFGTGTKVTVLG |
|  |  |  |  |  |  | 1 nM | 1.09 nM | 0.913 nM |  |  |  | mAb 356 (antibody, V domains shown) VH: EVQLVESGGGLVKPGGSLRLSCAASGFTFSDYNMHWVRQAPGKGLEWVSSISYSSTYIYYADSVRGRFTISRDNAKNSLYLQMNSLRAEDTAVFYCAREDYYYYGLDVWGQGTTVTVSS VL: DIQMTQSPSSLSASVGDRVTITCRASQDIRNDLGWYQQKPGKAPKRLIYDASSLQSGVPSRFSGSGSGTEFTLTISSLQPEDFAIYYCLQHNSYPWTFGQGTKVEIK |
|  |  |  |  |  |  | 0.297 nM | 0.293 nM | 0.313 nM | 0.284 nM |  |  | mAb 264 (antibody, V domains shown) VH: EVQLVESGGGLVKPGGSLRLSCAASGFTFSSYSMNWVRQAPGKGLEWVSYISTSNSYIYYADSVKGRFTISRDNAKNSLYLQMNSLRAEDTAVYYCARDQVGATLDAFDIWGQGTMVTVSS VL: DIQMTQSPSSLSASVGDRVTFTCRASQDITDDLGWYQQKPGKAPKRLIYAASSLQSGVPSRFSGSGSGTEFTLTISSLQPEDFATYYCLQHNSYPFTFGPGTKVDIR |
|  |  |  |  |  |  | 0.253 nM | 0.253 nM |  |  |  |  | mAb 243 (antibody, V domains shown) VH: EVQLVESGGGLVKPGGSLRLSCAASGFTFSSYSMNWVRQAPGKGLEWVSYISTSNSYIYYADSVKGRFTISRDNAKNSLYLQMNSLRAEDTAVYYCARDQVGATLDAFDIWGQGTMVTVSS VL: DIQMTQSPSSLSASVGDRVTFTCRASQDITDDLGWYQQKPGKAPKRLIYAASSLQSGVPSRFSGSGSGTEFTLTISSLQPEDFATYYCLQHNSYPFTFGPGTKVDIR |
